Experimental data: publication PMC8635433

Key:
[1] = molecular target: ChAdOx1 penton protein (chimpanzee adenovirus Y25); experiment: cryo-EM structure
[2] = molecular target: coxsackie and adenovirus receptor (CAR), immobilised for SPR (UniProt P78310); experiment: SPR; BIAcore T200; about 2000 RU of CAR, DSG2 and CD46 amine-coupled to a CM5 chip; fiber knob proteins flowed over, 1:2 serial dilutions; 25°C, PBS with 0.001% P20, 30 μl/min; 1:1 interaction model
[3] = molecular target: ChAdOx1 fiber knob protein (chimpanzee adenovirus Y25); experiment: crystal structure; ChAdOx1 fiber knob, P1, 1.59 Å, four trimers in the asymmetric unit
[4] = molecular target: AZD1222 vaccine preparation of ChAdOx1 (ChAdOx1 nCoV-19) (chimpanzee adenovirus Y25); experiment: SPR
[5] = molecular target: human adenovirus type 26 (HAdV-D26) viral vector (virus particle) (human adenovirus type 26); experiment: SPR
[6] = molecular target: human adenovirus type 5 (HAdV-C5) viral vector (virus particle) (human adenovirus type 5) (UniProt P04133); experiment: SPR
[7] = molecular target: CAR on CHO-CAR cells (UniProt P78310); experiment: flow cytometry on cells; antibody binding inhibition: serial dilutions of fiber knob (0.00001 to 100 μg per 10^5 cells) on CHO-CAR or CHO-BC1 cells, 30 min on ice, then anti-CAR RmcB or anti-CD46 MEM-258 and Alexa Fluor 488 secondary antibody; IC50 by nonlinear regression
Chain of CAR on CHO-CAR cells (P78310 20-365): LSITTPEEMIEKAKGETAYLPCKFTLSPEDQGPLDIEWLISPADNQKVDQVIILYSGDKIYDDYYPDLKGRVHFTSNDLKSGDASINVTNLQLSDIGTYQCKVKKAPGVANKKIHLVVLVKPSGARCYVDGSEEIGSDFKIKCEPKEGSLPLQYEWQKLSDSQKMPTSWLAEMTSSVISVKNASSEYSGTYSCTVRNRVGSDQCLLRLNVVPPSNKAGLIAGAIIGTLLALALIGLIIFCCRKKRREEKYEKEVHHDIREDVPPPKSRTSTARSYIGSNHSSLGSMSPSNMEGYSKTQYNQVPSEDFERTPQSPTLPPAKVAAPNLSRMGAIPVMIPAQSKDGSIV

[8] = molecular target: ChAdOx1 pIX (chimpanzee adenovirus Y25); experiment: cryo-EM structure
[9] = molecular target: ChAdOx1 hexon (chimpanzee adenovirus Y25); experiment: cryo-EM structure

## ChAdOx1 penton protein (natural protein)
[1]
  stoichiometry N: 5

## ChAdOx1 fiber knob protein (domain or fragment; other documents disagree on this pair)
[2]
  Kd: 7.16 nM

## ChAdOx1 fiber knob protein (domain or fragment)
[3]
  stoichiometry N: 3

## platelet factor 4 (PF4) (natural protein)
[4]
  Kd: 514 nM
[5]
  Kd: 301 nM
[6]
  Kd: 789 nM

## HAdV-B35 fiber knob protein (domain or fragment)
[7]
  fold higher IC50 (reference not named: HAdV-C5 or ChAdOx1 fiber knob): > 1000 fold

## ChAdOx1 pIX (natural protein)
[8]
  stoichiometry N: 4

## ChAdOx1 hexon (natural protein)
[9]
  stoichiometry N: 3
